# B1: AT-N135Q-Pro394 (other)
# chain: HGSPVDICTAKPRDIPMNPMCIYRSPEKKATEDEGSEQKIPEATNRRVWELSKANSRFATTFYQHLADSKNDNDNIFLSPLSISTAFAMTKLGACNDTLQQLMEVFKFDTISEKTSDQIHFFFAKLNCRLYRKAQKSSKLVSANRLFGDKSLTFNETYQDISELVYGAKLQPLDFKENAEQSRAAINKWVSNKTEGRITDVIPSEAINELTVLVLVNTIYFKGLWKSKFSPENTRKELFYKADGESCSASMMYQEGKFRYRRVAEGTQVLELPFKGDDITMVLILPKPEKSLAKVEKELTPEVLQEWLDELEEMMLVVHMPRFRIEDGFSLKEQLQDMGLVDLFSPEKSKLPGIVAEGRDDLYVSDAFHKAFLEVNEEGSEAAASTAVVIAGRPSLNPNRVTFKANRPFLVFIREVPLNTIIFMGRVANPCVK
# notes: Recombinant double mutant antithrombin made in HEK-293 or BHK-21 cells, secreted
# Target: T1, factor Xa (FXa, Kordia) (UniProt P00742 41-179; P00742 235-488, limits assumed)
# T1 construct: The bovine factor Xa of the Rotachrom kit is a different reagent and is not used here
# Assay: ratio of kon for FXa inhibition against plasma AT, with pentasaccharide
# Protocol: In a second time FXa residual activity is measured by adding 190 μl of S2765 (200 μM) to 10 μl of previous mixture. Initial rate of substrate hydrolysis is then plotted as the function of incubation time with inhibitor and curves are fitted with equation 1 to determine kon (gray lines). Time expressed in minute is plotted in abscissa; substrate hydrolysis rate expressed in OD/s⁻¹ is plotted in ordinate.
# T1 sequence (P00742 41-179 limits assumed, form in doubt, chain 1 of 2): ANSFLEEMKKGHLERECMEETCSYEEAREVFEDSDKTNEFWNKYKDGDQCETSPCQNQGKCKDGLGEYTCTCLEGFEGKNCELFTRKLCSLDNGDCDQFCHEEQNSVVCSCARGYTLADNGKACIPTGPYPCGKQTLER
# T1 sequence (P00742 235-488 limits assumed, form in doubt, chain 2 of 2): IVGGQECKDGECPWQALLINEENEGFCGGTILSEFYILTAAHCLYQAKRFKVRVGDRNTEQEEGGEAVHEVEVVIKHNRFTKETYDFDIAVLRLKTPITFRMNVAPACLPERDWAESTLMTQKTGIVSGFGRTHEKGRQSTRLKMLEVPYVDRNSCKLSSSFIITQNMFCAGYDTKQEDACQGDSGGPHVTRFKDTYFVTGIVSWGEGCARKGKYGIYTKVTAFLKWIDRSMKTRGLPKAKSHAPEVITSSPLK
binder,measurement,value
B1,fold lower kon than plasma AT,≥ 7600 fold
